± gives the uncertainty stated by the source.
Assay: self-splicing fitness, log relative to wild type (ln ratio); higher = more splicing; Tetrahymena group I intron in knt gene, E. coli kanamycin selection, DiMSum; sequences stand for … in CUCUCU…GGAGGGAAAAGUUAUCAGGCAUGCACCUGGUAGCUAGUCUUUAAACCAAUAGAUUGCAUCGGUUUAAAAGGCAAGACCGUCAAAUUGCGGGAAAGGGGUCAACAGCCGUUCAGUACCAAGUCUCAGGGGAAACUUUGAGAUGGCCUUGCAAAGGGUAUGGUAAUAAGCUGACGGACAUGGUCCUAACCACGCAGCCAAGUCCUAAGUCAACAGAUCUUCUGUUGAUAUGGAUGCAGUUCACAGACUAAAUGUCGGUCGGGGAAGAUGUAUUCUUCUCAUAAGAUAUAGUCGGACCUCUCCUUAAUGGGAGCUAGCGGAUGAAGUGAUGCAACACUGGAGCCGCUGGGAACUAAUUUGUAUGCGAAAGUAUAUUGAUUAGUUUUGGAGUACUCGUGGUCG
Summary of the method: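 Fitness was computed with DiMSum as the error-weighted combination of replicate fold changes, kanamycin versus none, each normalised to wild type. The library randomised all eight intron nucleotides of the P1ex region, with the intron placed in the knt kanamycin-resistance gene on pET-22b(+) in E. coli BL21(DE3). Six replicate transformations were grown overnight at 37°C or 30°C on LB agar with or without 25 μg/mL kanamycin, plus 100 μg/mL carbenicillin, 50 μM IPTG and 0.2% rhamnose. Pooled colonies were amplicon-sequenced on an Illumina HiSeq 2500.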

With CGAAAGCAAUAUUACGUACG the “self-splicing fitness (ln)” value (30 °C) was -1.5 ± 0.076 and the “self-splicing fitness (ln)” value (37 °C) was -1.27 ± 0.11.

In the case of CGAAAGCAAUAUUACGUAGG, the “self-splicing fitness (ln)” value (30 °C) is reported as -0.721 ± 0.067 and the “self-splicing fitness (ln)” value (37 °C) is reported as -0.28 ± 0.096.

In the case of CGAAAGCAAUAUUACGUAUA, the “self-splicing fitness (ln)” value (30 °C) is reported as -3.52 ± 0.17 and the “self-splicing fitness (ln)” value (37 °C) is reported as -2.99 ± 0.21.

In the case of CGAAAGCAAUAUUACGUUAG, the “self-splicing fitness (ln)” value (30 °C) is reported as -0.97 ± 0.068 and the “self-splicing fitness (ln)” value (37 °C) is reported as -0.895 ± 0.082.

With CGAAAGCAAUAUUACGUUCC the “self-splicing fitness (ln)” value (30 °C) was -2.1 ± 0.21 and the “self-splicing fitness (ln)” value (37 °C) was -0.586 ± 0.22.

In the case of CGAAAGCAAUAUUACGUUCG, the “self-splicing fitness (ln)” value (30 °C) is reported as -3.44 ± 0.14 and the “self-splicing fitness (ln)” value (37 °C) is reported as -2.62 ± 0.15.

For CGAAAGCAAUAUUACGUUCU, the “self-splicing fitness (ln)” value (30 °C) was -0.581 ± 0.075 and the “self-splicing fitness (ln)” value (37 °C) was 0.092 ± 0.1.

In the case of CGACAGCAAUAUUACGACAA, the “self-splicing fitness (ln)” value (30 °C) is reported as -2.08 ± 0.13 and the “self-splicing fitness (ln)” value (37 °C) is reported as -1.27 ± 0.13.

For CGACAGCAAUAUUACGACGG, the “self-splicing fitness (ln)” value (30 °C) was 0.243 ± 0.074 and the “self-splicing fitness (ln)” value (37 °C) was 0.0681 ± 0.086.

With CGACAGCAAUAUUACGAGUG the “self-splicing fitness (ln)” value (30 °C) was -1.06 ± 0.046 and the “self-splicing fitness (ln)” value (37 °C) was -0.592 ± 0.063.

With CGACAGCAAUAUUACGAUUG the “self-splicing fitness (ln)” value (30 °C) was -0.746 ± 0.07 and the “self-splicing fitness (ln)” value (37 °C) was -0.877 ± 0.091.

With CGACAGCAAUAUUACGCACA the “self-splicing fitness (ln)” value (30 °C) was -0.429 ± 0.17 and the “self-splicing fitness (ln)” value (37 °C) was 0.097 ± 0.17.

With CGACAGCAAUAUUACGCAGC the “self-splicing fitness (ln)” value (37 °C) was -1.96 ± 0.29.

For CGACAGCAAUAUUACGCAGG, the “self-splicing fitness (ln)” value (30 °C) was -2.05 ± 0.081 and the “self-splicing fitness (ln)” value (37 °C) was -0.906 ± 0.088.

With CGACAGCAAUAUUACGCAUG the “self-splicing fitness (ln)” value (30 °C) was -1.37 ± 0.075 and the “self-splicing fitness (ln)” value (37 °C) was -0.351 ± 0.074.

For CGACAGCAAUAUUACGCCAC, the “self-splicing fitness (ln)” value (37 °C) was 0.365 ± 0.49.

In the case of CGACAGCAAUAUUACGCGAA, the “self-splicing fitness (ln)” value (30 °C) is reported as -2.75 ± 0.17 and the “self-splicing fitness (ln)” value (37 °C) is reported as -1.42 ± 0.14.

For CGACAGCAAUAUUACGCGUC, the “self-splicing fitness (ln)” value (30 °C) was -1.94 ± 0.14 and the “self-splicing fitness (ln)” value (37 °C) was -2.76 ± 0.27.

For CGACAGCAAUAUUACGCGUG, the “self-splicing fitness (ln)” value (30 °C) was -1.55 ± 0.067 and the “self-splicing fitness (ln)” value (37 °C) was -1.14 ± 0.095.

In the case of CGACAGCAAUAUUACGCUCA, the “self-splicing fitness (ln)” value (30 °C) is reported as 0.00701 ± 0.094 and the “self-splicing fitness (ln)” value (37 °C) is reported as -0.503 ± 0.1.

In the case of CGACAGCAAUAUUACGGAGU, the “self-splicing fitness (ln)” value (30 °C) is reported as -3.91 ± 0.2 and the “self-splicing fitness (ln)” value (37 °C) is reported as -2.53 ± 0.14.

With CGACAGCAAUAUUACGGCUC the “self-splicing fitness (ln)” value (30 °C) was -2.5 ± 0.11 and the “self-splicing fitness (ln)” value (37 °C) was -1.89 ± 0.14.

With CGACAGCAAUAUUACGGGCA the “self-splicing fitness (ln)” value (30 °C) was -1.24 ± 0.14 and the “self-splicing fitness (ln)” value (37 °C) was 0.117 ± 0.13.

With CGACAGCAAUAUUACGGGGC the “self-splicing fitness (ln)” value (30 °C) was -3.72 ± 0.29 and the “self-splicing fitness (ln)” value (37 °C) was -2.87 ± 0.29.

In the case of CGACAGCAAUAUUACGGGGG, the “self-splicing fitness (ln)” value (30 °C) is reported as -2.92 ± 0.094 and the “self-splicing fitness (ln)” value (37 °C) is reported as -2.51 ± 0.11.

With CGACAGCAAUAUUACGGUAU the “self-splicing fitness (ln)” value (30 °C) was -3.62 ± 0.2 and the “self-splicing fitness (ln)” value (37 °C) was -2.45 ± 0.23.

For CGACAGCAAUAUUACGGUGA, the “self-splicing fitness (ln)” value (30 °C) was -2.34 ± 0.14 and the “self-splicing fitness (ln)” value (37 °C) was -1.55 ± 0.14.

In the case of CGACAGCAAUAUUACGGUUG, the “self-splicing fitness (ln)” value (30 °C) is reported as -3.3 ± 0.13 and the “self-splicing fitness (ln)” value (37 °C) is reported as -2.84 ± 0.18.

For CGACAGCAAUAUUACGUACC, the “self-splicing fitness (ln)” value (30 °C) was -0.817 ± 0.12 and the “self-splicing fitness (ln)” value (37 °C) was -0.217 ± 0.19.

For CGACAGCAAUAUUACGUAUC, the “self-splicing fitness (ln)” value (37 °C) was -1.59 ± 0.19.

With CGACAGCAAUAUUACGUCCA the “self-splicing fitness (ln)” value (30 °C) was -0.437 ± 0.066 and the “self-splicing fitness (ln)” value (37 °C) was -0.321 ± 0.081.

With CGACAGCAAUAUUACGUGAA the “self-splicing fitness (ln)” value (30 °C) was -1.93 ± 0.11 and the “self-splicing fitness (ln)” value (37 °C) was -2.02 ± 0.15.

With CGACAGCAAUAUUACGUGAU the “self-splicing fitness (ln)” value (30 °C) was -3.44 ± 0.21 and the “self-splicing fitness (ln)” value (37 °C) was -1.92 ± 0.17.

With CGAGAGCAAUAUUACGAAGA the “self-splicing fitness (ln)” value (30 °C) was -3.49 ± 0.36.

With CGAGAGCAAUAUUACGACCU the “self-splicing fitness (ln)” value (30 °C) was -0.7 ± 0.21 and the “self-splicing fitness (ln)” value (37 °C) was -0.635 ± 0.41.

In the case of CGAGAGCAAUAUUACGCAAA, the “self-splicing fitness (ln)” value (30 °C) is reported as -2.67 ± 0.27.

In the case of CGAGAGCAAUAUUACGCAAU, the “self-splicing fitness (ln)” value (30 °C) is reported as -2.58 ± 0.36.

For CGAGAGCAAUAUUACGCAGA, the “self-splicing fitness (ln)” value (30 °C) was -3.36 ± 0.33 and the “self-splicing fitness (ln)” value (37 °C) was -1.94 ± 0.26.

With CGAGAGCAAUAUUACGCCUC the “self-splicing fitness (ln)” value (30 °C) was -4.16 ± 0.39 and the “self-splicing fitness (ln)” value (37 °C) was -1.27 ± 0.18.

With CGAGAGCAAUAUUACGCGAG the “self-splicing fitness (ln)” value (30 °C) was -2.82 ± 0.19 and the “self-splicing fitness (ln)” value (37 °C) was -1.88 ± 0.22.

For CGAGAGCAAUAUUACGCGGG, the “self-splicing fitness (ln)” value (30 °C) was -3.05 ± 0.32 and the “self-splicing fitness (ln)” value (37 °C) was -2.16 ± 0.27.

For CGAGAGCAAUAUUACGCUCG, the “self-splicing fitness (ln)” value (37 °C) was -2.39 ± 0.38.

For CGAGAGCAAUAUUACGGAGA, the “self-splicing fitness (ln)” value (30 °C) was -2.61 ± 0.26.

In the case of CGAGAGCAAUAUUACGGAGC, the “self-splicing fitness (ln)” value (30 °C) is reported as -2.84 ± 0.35.

In the case of CGAGAGCAAUAUUACGGAUA, the “self-splicing fitness (ln)” value (30 °C) is reported as -2.25 ± 0.37 and the “self-splicing fitness (ln)” value (37 °C) is reported as -1.82 ± 0.41.
